Legend:
[1] = molecular target: T1, wild-type yeast αβ-tubulin (S. cerevisiae, UniProt P09733 1-447; P02557 1-457); assay: AUC; sedimentation velocity, 50,000 rpm, 20 °C, absorbance at 229 nm; 0.15 µM T238A αβ-tubulin with 0.015-5 µM TOG1 or TOG2; RB100 (25 mM Tris pH 7.5, 1 mM MgCl2, 1 mM EGTA, 100 mM NaCl) with 20 µM GTP; analysed with SEDFIT and SEDPHAT; conditions: both partners purified
T1 construct: Tub1p, α-tubulin of S. cerevisiae; Ayaz et al., 2012; 2014); Tub2p, β-tubulin of S. cerevisiae; Unpolymerized heterodimer in the AUC; polymerised into microtubules in the Bim1-GFP, growth and sedimentation assays; also called WT; wild-type αβ-tubulin

[2] = molecular target: T2, β:T238A αβ-tubulin (S. cerevisiae, UniProt P09733 1-447; P02557 1-457, T238A); assay: as above; conditions: both partners purified
T2 construct: Tub1p, α-tubulin of S. cerevisiae; Tub2p, β-tubulin of S. cerevisiae, with T238A made by QuikChange on the wild-type Tub2 expression plasmid; Unpolymerized heterodimer in the AUC; microtubules in the other assays; also called T238A tubulin; β:T238A microtubules

[3] = molecular target: T3, wild-type yeast αβ-tubulin (S. cerevisiae, UniProt P09733 1-447; P02557 1-457); assay: AUC
T3 chain 1: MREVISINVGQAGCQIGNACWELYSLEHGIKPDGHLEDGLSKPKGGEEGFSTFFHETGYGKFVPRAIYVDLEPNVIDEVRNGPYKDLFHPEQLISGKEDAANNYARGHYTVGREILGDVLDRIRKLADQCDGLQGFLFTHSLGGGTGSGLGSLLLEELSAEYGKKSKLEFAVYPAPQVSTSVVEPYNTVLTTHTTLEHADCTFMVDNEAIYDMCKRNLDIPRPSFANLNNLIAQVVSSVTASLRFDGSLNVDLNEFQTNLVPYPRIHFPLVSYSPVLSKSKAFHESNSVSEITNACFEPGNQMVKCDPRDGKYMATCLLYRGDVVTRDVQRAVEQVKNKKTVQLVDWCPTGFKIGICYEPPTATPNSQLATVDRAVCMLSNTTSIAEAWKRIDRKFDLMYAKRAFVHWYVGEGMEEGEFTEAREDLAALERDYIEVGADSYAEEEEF
T3 chain 2: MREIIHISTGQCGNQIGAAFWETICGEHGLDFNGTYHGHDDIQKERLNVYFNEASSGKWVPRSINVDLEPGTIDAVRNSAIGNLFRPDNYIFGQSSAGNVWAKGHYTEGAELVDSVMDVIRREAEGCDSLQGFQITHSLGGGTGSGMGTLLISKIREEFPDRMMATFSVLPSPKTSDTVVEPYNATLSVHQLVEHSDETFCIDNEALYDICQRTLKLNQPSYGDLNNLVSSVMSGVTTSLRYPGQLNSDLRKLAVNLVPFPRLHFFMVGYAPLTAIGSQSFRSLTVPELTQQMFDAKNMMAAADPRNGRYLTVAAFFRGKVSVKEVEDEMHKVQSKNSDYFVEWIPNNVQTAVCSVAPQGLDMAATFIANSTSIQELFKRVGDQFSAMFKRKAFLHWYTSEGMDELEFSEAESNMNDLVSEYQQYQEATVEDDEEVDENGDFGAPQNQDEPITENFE

[4] = molecular target: β:T238A αβ-tubulin (S. cerevisiae, UniProt P09733 1-447; P02557 1-457, T238A); assay: AUC
[5] = molecular target: T1, wild-type yeast αβ-tubulin; assay: TIRF microscopy of Bim1-GFP on microtubules; dynamic microtubules grown from sea urchin axonemes in flow chambers with 1 mM GTP; 5 or 50 nM Bim1-GFP in solution; 30 °C; conditions: both partners purified
[6] = molecular target: T4, β:C354A αβ-tubulin (S. cerevisiae, UniProt P09733 1-447; P02557 1-457, C354A); assay: as above; conditions: both partners purified
T4 construct: Tub1p, α-tubulin of S. cerevisiae; Tub2p, β-tubulin of S. cerevisiae, with C354A (yeast numbering); The making of the C354A plasmid is not described; Used as microtubules; also called β:C354A microtubules

[7] = molecular target: T2, β:T238A αβ-tubulin; assay: as above; conditions: both partners purified

Binder | binding result [1] | binding result [2] | Kd [3] | Kd [4] | binding result [5] | binding result [6] | binding result [7]
TOG1(1-317) of Stu2p (domain or fragment, yeast, UniProt P46675 1-317, looked up, Stu2p, yeast microtubule polymerase, TOG1 domain, residues 1-317; Plasmid described in Ayaz et al., 2012; 2014; also called Stu2 TOG1 domain) MSGEEEVDYTTLPLEERLTYKLWKARLEAYKELNQLFRNSVGDISRDDNIQIYWRDPTLFAQYITDSNVVAQEQAIVALNSLIDAFASSSLKNAHNITLISTWTPLLVEKGLTSSRATTKTQSMSCILSLCGLDTSITQSVELVIPFFEKKLPKLIAAAANCVYELMAAFGLTNVNVQTFLPELLKHVPQLAGHGDRNVRSQTMNLIVEIYKVTGNNSDLLEEILFKKLKPIQVKDLHKLFAKVGDEPSSSKMLFEWEKRELEKKRSQEEEARKRKSILSNDEGEYQIDKDGDTLMGMETDMPPSKQQSGVQIDTFS | binds | binds | 90 nM | 50 nM | – | – | –
TOG2(318-560) of Stu2p (domain or fragment, yeast, UniProt P46675 318-560, looked up, Stu2p, yeast microtubule polymerase, TOG2 domain, residues 318-560; Plasmid described in Ayaz et al., 2012; 2014; also called Stu2 TOG2 domain) MLPEETILDKLPKDFQERITSSKWKDRVEALEEFWDSVLSQTKKLKSTSQNYSNLLGIYGHIIQKDANIQAVALAAQSVELICDKLKTPGFSKDYVSLVFTPLLDRTKEKKPSVIEAIRKALLTICKYYDPLASSGRNEDMLKDILEHMKHKTPQIRMECTQLFNASMKEEKDGYSTLQRYLKDEVVPIVIQIVNDTQPAIRTIGFESFAILIKIFGMNTFVKTLEHLDNLKRKKIEETVKTL | binds | binds | 180 nM | 160 nM | – | – | –
Bim1-GFP fusion protein (natural protein, yeast, UniProt P40013 1-344, looked up, Bim1p, the yeast EB1 family protein; C-terminal EGFP-tag followed by a Strep-tag II; also called Bim1p; yeast EB1 protein; source: E. coli BL21(DE3), purified (His60 Superflow column, Strep-Tactin Superflow column); not shown: EGFP, C-terminal, kept) MSAGIGESRTELLTWLNGLLNLNYKKIEECGTGAAYCQIMDSIYGDLPMNRVKFNATAEYEFQTNYKILQSCFSRHGIEKTVYVDKLIRCKFQDNLEFLQWLKKHWIRHKDESVYDPDARRKYRPIITNNSATKPRTVSNPTTAKRSSSTGTGSAMSGGLATRHSSLGINGSRKTSVTQGQLVAIQAELTKSQETIGSLNEEIEQYKGTVSTLEIEREFYFNKLRDIEILVHTTQDLINEGVYKFNDETITGHGNGNGGALLRFVKKVESILYATAEGFEMNDGEDELNDKNLGEHGTVPNQGGYANSNGEVNGNEGSNHDVIMQNDEGEVGVSNNLIIDEETF | – | – | – | – | binds | binds | binds
